Results taken from a protein production outcome set (Wang et al. 2014).

Experiment: label from the status in PepcDB records

Sequence | protein production
MSNIDFDKYRILLVNSYFQSRNAKITRFWNRATTNAKDIFHGIRTRKEFFSKIIRDFQTEFGEDFIEYLAGGELIGGITNILPIYENKMGVMERSGHIIHKKSGYHLTPDILSEYLINDVFFDNTFLKHNIEELAKADNGVHILDILNSLLKVKDDREIYREATEKLLEMLNCLESDNEQKKRRIRAGIVVYYGFGNLNLVTAAIGEFWTDYGILDDGIDLQALGIFLGDISKLYEARICMERANEIFKNNGDKIGIATSLHNLGIILHLQGNYEEAMNKYNQSLKIDEELGERHRISMSLRFLGRIEYDKGNYDDAVKLYNQSLMIAEKLGDQSGIAKLLGELGIVLLHQGNYDEAIKLYNQSLMIAEKLGDQSGIAGTLYELGKVYLIQDNYGESIEVQKRSLKIKELLGDKYGIAHSLHALGVTHEVKKEYTFALLNYLEASSIYKELNSPYSKDVSKLITDLRDKMGNEQFNKACKEFGYVPPDNI | failed
MENRSHALLAGLFTLALLVAAALVAIWVGRDRAALKPYVIVSATSVSGLSAQSTVRYQGVPVGKVQSLGFNPDKPAQVRISIGVAPDTPITESTWAELGVQGVTGLGNIELRDDGTSTRRLASSAAMPATIPLRPGFFQRFEQRGGEILHNVEQVSARLERLLSNENVQATTATLQNIAAITTDLRQAATELRPALAQVPPLVDSLQAMSRNTGQAAQEIAGLAQAARQALARLDAPDGPLAMATRSMRDIAWAAARLDAQTLPAVSGMASSIDSAARSATTTLRRVGDTPQSLLFGPPPTVPGPGEPGFAGFGR | failed
MNHSFRTGITGRRFSAMRVPYGRSRRTHRNGGAGREGTTMTTTTTPTTTTPTSPPTVKAPTVKAPTAKTATAKTADNPVLRVAPASPAAAAAYFGASLAFHADVSDVATALAAGGDPGFVVLDSRSTASWDQGHVPGAVHLPTALIPEQAEQLLDRSVPVVTYCWGPGCNGATRAALALAELGFQVKEMLGGFEYWVREGFEYETWEGRDHRVADPLTAPVDADDCGC | failed
MTRAKAPMEGVKLNSLLKVEDFATQSQFLGVNPIWNNNSTQLVEPPSIVNDEEEETEPLLPVEFTLVERNLEDGLVEEIIFSSGGEIDVYDLQGLCDKVGWPRRPLVKLAAALKNSYMVATLHSVMKSSSDSDSSEGGDGEKQQEKKLIGMARATSDHAFNATIWDVLVDPEYQGQGLGKALVEKLVRALLQRDIGNISLFADSQVVDFYQNLGFEADPEGIKGMFWYPK | failed
MLPAYIRIHDQIKKEIDEGLWKIGDRLPSERDLAERFEVSRMTLRQAITLLVEEGILERRVGSGTYIASSRVQEKMRGTTSFTEIVKSQGKTPSTKLISYRRVHPSEQEIKFLDIKPKSYIIRMERVRYADDIPVVFEVTAIPEKIIKSFKKEAITKHFFKTLTDHGFVIGKSQQTISASNANEMTADYLAISRGHAVLTLAQVSYFENGMPFEYVRSQYVGERFEFYLENK | not failed
SVSLVGPAPWGFRLQGGKDFNMPLTISSLKDGGKASQAHVRIGDVVLSIDGISAQGMTHLEAQNKIKACTGSLNMTLQRASAAAKSEPVS | not failed
MKTFHLTTQSRDEMVDITSQIETWIRETGVTNGVAIVSSLHTTAGITVNENADPDVKRDMIMRLDEVYPWHHENDRHMEGNTAAHLKTSTVGHAQTLIISEGRLVLGTWQGVYFCEFDGPRTNRKFVVKLLTD | not failed
MQPVEASDYWELARLSQPAVSPTGDRVAYVRTTAERDGDTGQETASVHVAPVGGGGSRRFTAADGTDAEPAWSPTGDRLAFVSTRGDAGGGRPQLWVVPVDGGEATRITDVIGGVSNIAWGPDGDRVAFLQAVRPAERAEELDREHDGEYERDTPDPRVIDRQMYRGHTSYRDGARRHVYVADLAAGRVDRVTAGVAECGGPAWGDDGTLYYPIRRGLDADDRLEWAIEAATPADSADSTVVTTVEGMGPTLAVHGSRVAYTTTPADDPTLTQTAVEVFDRDTGATDRLTDGVDRTVAERTAGHAPEWGPDGEHLYVCTPDEGGYVLRRVAADTGDDRVVLAGDRHVHAFSVSADAVAVVQSEWDHPGEVVAATPMGGEEVTLTRANRDYLDERAVSKPESVWIDGPAGDIQGWVLTPPEFDPEETYPLVVNVHGGPHLMWSAAGTMWHEFQTLAARGYVVFWCNPRGSTGYGQEWLRAVERDWGAVTLADVMAGVAAVTDRDYVDADNAFITGGSFGGFMTGWAVGHTDAFAGAVAQRGVYDLTGFYGTTDAYALVEGEFDTDPVRDNAFLWAQSPAAHTDAVDTPTLLVHSEADYRTPANTAELFYRLLKKHGVDTRLVRYPGEGHDLSRSGDPGHVVDRIERIAAWFDGYSDHHEAAPVLETDRPGAAADE | failed
MKTINVITLVLLIVGGLNWGLVGLFQFDLVAALFGGQDALLSRVVYTLVGISALRQLVPLFRNNHDTAEHHTSPHVRNNP | failed
MSSSGTSITCEVGLQLIVPDRAPVPLVARLDYSVDDPYAIRAAFHVGDDEPVEWIFARELLTVGIIRETGEGDVRIWPSQDGKERMVNIALSSPFGQARFHAQVAPLSEFLHRTYELVPAGQESDYIDIDAEIAEHLS | not failed
MSFRVSASSSVKPEKDIRIGLLGASGYTGAEIVRLLANHPHFQVTLMTADRKAGQSMESVFPHLRAQKLPTLVSVKDADFSTVDAVFCCLPHGTTQEIIKELPTALKIVDLSADFRLRNIAEYEEWYGQPHKAVELQKEVVYGLTEILREDIKKARLVANPGCYPTTIQLPLVPLLKANLIKHENIIIDAKSGVSGAGRGAKEANLYSEIAEGISSYGVTRHRHVPEIEQGLSDVAQSKVTVSFTPHLMPMIRGMQSTIYVEMAPGVRTEDLHQQLKTSYEDEEFVKVLDEGVVPRTHNVRGSNYCHMSVFPDRIPGRAIIISVIDNLVKGASGQALQNLNIMLGYPETTGLLHQPLFP | failed
MSGQHGHDHSHAVVTQGNAKKLTIALSLTVTFLIVEVVAGFITQSLALLSDAAHMFTDAAALAIALAAIQVAKRPADDKRTFGYQRFEILAALFNASMLFMVAIYILYEAYQRFTHPPEIQSLGMLLVAVIGLIINLISMKILVSSAQDSLNVKGAYLEVLSDALGSVGVILGALVIYFTQWYWVDTLVAVLIGFWVLPRTWILLKQSINILLEGVPEEVDIEKLRDDLLALEGVESIHQLKVWAITSKNVHLTVHLFAPQADRNRLYRTAYEMLSHEHGIAEITLQIEEDECLAHSHTHIEKNHQH | failed
MNAYYYLAIAICAEVIATVSMKAVKGLSTPLPLALIIVGYGVAFWMLTLVVRTVPVGVAYAVWAGMGIVMVSIAALFLYGQKLDIPAMLGMALIVLGVVVIQLFSKTAGH | failed
MSDIIHLLPDSVANQIAAGEVIQRPASVIKELVENAIDADAQNIHVLVTDAGKTCIQIIDDGKGMSETDARLSFERHATSKIREAADLFALRTMGFRGEALASIAAVAQVELKTRLESEELGTKLVIAGSKVESQEAVSCSKGSNFSVKNLFFNVPARRKFLKANSTELSNILAEFERIALVHPEVAFSLYSNDSELFNLPVSPLRQRILAIFGKKLNQQLLNIEVNTTMVKISGYIAKPETARKKGAHQYFFVNGRYMRHPYFHKAVMEAYEQLIPVGEQVSYFIYFEVDPANIDVNIHPTKTEIKFENEQAIWQILSASVKESLGKFSAIPSIDFDTEDMPDIPAFEQNLPPAPPKIHYNSDFNPFKVSSGGSGGGSYSRPKVEWEGLYGGLTKASKMNEPQQEPEMDWENSPFEEEPMVAEEKTISAVSAASSTFSSASSTLYANESVIEKGNLHLQFKGRFILTSVKSGLMLIDQHRAHIRVLFDRYMVQIKQKQGVSQGVLFPEILQLPASEAAVLQGIMDDLSAVGFDLSDLGGGSYAINGIPSGIEGLNPVELVRNMLHTAMEKGNDVKEEIQNILALTLARAAAIVYGQVLSNEEMVSLVDSLFACPSPNYTPDGKTVLTTIKEEDIEKLFK | failed
ATGTTGGGCATGATCAGGAACTCACTGTTCGGGAGCGTGGAAACGTGGCCTTGGCAGGTTCTAAGCACCGGGGGCAAGGAAGATGTCTCCTATGAGGAAAGAGCCTGTGAAGGGGGCAAGTTTGCTACTGNGGAAGTGACAGACAAGCCAGTGGATGAGGCTCTCCGGGAAGCGATGCCCAAGATCATGAAGTATGTGGGTGGCACCAATGACAAAGGAGTCGGCATGGGTATGACAGTCCCTGTCTCTTTTGCCGTGTTTCCCAATGAAGATGGCTCCCTACAGAAGAAACTGAAAGTCTGGTTCCGGATTCCGAACCAATTTCAAGGCAGCCCACCGGCCCCCAGTGACGAGAGTGTGAAGATCGAGGAACGGGAGGGCATCACTGTCTATTCCACGCAATTTGGAGGCTATGCCAAGGAAGCAGACTATGTTGCTCATGCCACCCAGCTACGGACCACACTGGAGGGCACACCAGCGACCTACCAGGGTGATGTCTACTACTGTGCCGGATATGACCCTCCCATGAAGCCCTATGGACGCCGTAACGAGGTCTGGCTTGTGAAGGCATGA | not failed
MERAMEQLNRLTRSLRRARTVELPEDNETAVYTLMPMVMADQHRSVSELLSNSKFDVNYAFGRVKRSLLHIAANCGSVECLVLLLKKGANPNYQDISGCTPLHLAARNGQKKCMSKLLEYSADVNICNNEGLTAIHWLAVNGRTELLHDLVQHVTDVDVEDAMGQTALHVACQNGHKTTVQCLLDSGADINRPNVAGATPLYFACSHGQRDTAQILLLRGAKYLPDKNGVTPLDLCVQGGYGQTCEVLIQYHPRLFQTIVQMTQNEDLRENMLRQVLQHLSQQSESQYLKILTGLAEVATTNGHKLLSLSSSYEAQMKSLLRIVRIFCHVFRIGPSSPSNGMDMGYNGNKTPRSQVFKPLELLWHSLDEWLVLIATELMKNKEDSADITSILLKQKGQDQEASCISAFEPPGPGSYERLSTGPGESKPDVLAGKQEASADCQDVISVTANRLSAVIQAFYMCCSCQMPPGMTSPRFIEFVCKHDEVLKCFVNRNPKIIFDHFHFLLECPELMSRFMHIIKAQPFKDRCEWFYEHLHSGQPDSDMVHRPVSENDILLVHRDSIFRSSCEIVSKANCAKLKQGIAVRFHGEEGMGQGVVREWFDILSNEIVNPDYALFTQSYCYVFISIGTTFQPNSNSYVNPDHLNYFRFAGQILGLALNHRQLVNIYFTRSFYKHILGIPVNYQDVASIDPEYAKNLQWILDNDISDLGLELTFSVETDVFGAMEEVPLKPGGGSILVTQNNKAEYVQLVTELRMTRAIQPQINAFLQGFHMFIPPSLIQLFDEYELELLLSGMPEIDVNDWIKNTEYTSGYEREDPVIQWFWEVVEDMTQEERVLLLQFVTGSSRVPHGGFANIMGGSGLQNFTIAAVPYTPNLLPTSSTCINMLKLPEYPSKEILKDRLLVALHCGSYGYTMA | failed
MITVVGTGTGAPLSADAARALAGAGLVVGGRRHLAAAALPDGAERIVLGPLAPALDAIEAALEKQRRVVVLASGDPGFFGIVRALAERFGAERLDVRPGVSSVATAFARLGLPWDDAVVVSAHGRDLRTALNVCRSRPKVAVLTGPGAGPAELGAALAHGFGARVLVVASALGDPEHERVERVTPAEAAARDWGTAVSVVLCLDASRALAPVRTVAGPPAGPARWALEEGDFAHRDSMITKFEVRALALARLGPRLGDLVWDVGAGSGSVAVECARLGAAVTAVEKTLDGVERIHANARAHGVDVHVVHGAAPDALTALPDPDAVFIGGGGRELPALVTACARRARRTVVVAMAALDRVPAVREALTGAGFGCDGVLLQSSRLAPLPGDVTRLAATNPVFLLWGARPPARTEGALQ | failed
MLKYSNHMAFKDLREYIEFMKKKGKLIEVDDEVSVDLEIAEITRKATYAHLPPLLFKRVKNYENWKIVSNIFYSIESLYEIFGTNKLESISEGFLSNLSNMPITFFDKIKSLREILGLGKVMPKAKSPSFKEEKNLDLTKIPAIKTWPKDAGRYLTFSITITKDPETDVHNLSVYRVQILNEKEAIIHWQAFKRGALTAKKYLEKGISKIPIAVVTGVDPAIAFTAASPVPHGIDKYMFAGILRGEGIDVAELDNQLLVPSHSEVVLTGYVDLNDMRLEGPFGDHMGYYTPADYYPVFKLERVYIREDPIFHVTSVGKPPLEDAWIGKAVERIFLPFAKMLVPELIDMNLPEYGLFTGIGIFSIKKYYPGQAKRVMMALWGTGQLSLLKIIIVVDQDIDVHDINQVIYAIAANVDPKRDVWVIENALTDSLDPSVPFPPLGSKLGIDATRKFKEEMGKEWPEEVRSDEVVAKKADQILNKIIKRYQTSLEHHHHHH | failed
